No end group written: not given here.
Experiments:
ClC-1 = assay: cell-based or functional assay
rabbit ClC-2 [1] = biological target: T1, rabbit ClC-2 (rabbit, UniProt P51789 1-898); assay: cell-based or functional assay
T1 sequence (looked up): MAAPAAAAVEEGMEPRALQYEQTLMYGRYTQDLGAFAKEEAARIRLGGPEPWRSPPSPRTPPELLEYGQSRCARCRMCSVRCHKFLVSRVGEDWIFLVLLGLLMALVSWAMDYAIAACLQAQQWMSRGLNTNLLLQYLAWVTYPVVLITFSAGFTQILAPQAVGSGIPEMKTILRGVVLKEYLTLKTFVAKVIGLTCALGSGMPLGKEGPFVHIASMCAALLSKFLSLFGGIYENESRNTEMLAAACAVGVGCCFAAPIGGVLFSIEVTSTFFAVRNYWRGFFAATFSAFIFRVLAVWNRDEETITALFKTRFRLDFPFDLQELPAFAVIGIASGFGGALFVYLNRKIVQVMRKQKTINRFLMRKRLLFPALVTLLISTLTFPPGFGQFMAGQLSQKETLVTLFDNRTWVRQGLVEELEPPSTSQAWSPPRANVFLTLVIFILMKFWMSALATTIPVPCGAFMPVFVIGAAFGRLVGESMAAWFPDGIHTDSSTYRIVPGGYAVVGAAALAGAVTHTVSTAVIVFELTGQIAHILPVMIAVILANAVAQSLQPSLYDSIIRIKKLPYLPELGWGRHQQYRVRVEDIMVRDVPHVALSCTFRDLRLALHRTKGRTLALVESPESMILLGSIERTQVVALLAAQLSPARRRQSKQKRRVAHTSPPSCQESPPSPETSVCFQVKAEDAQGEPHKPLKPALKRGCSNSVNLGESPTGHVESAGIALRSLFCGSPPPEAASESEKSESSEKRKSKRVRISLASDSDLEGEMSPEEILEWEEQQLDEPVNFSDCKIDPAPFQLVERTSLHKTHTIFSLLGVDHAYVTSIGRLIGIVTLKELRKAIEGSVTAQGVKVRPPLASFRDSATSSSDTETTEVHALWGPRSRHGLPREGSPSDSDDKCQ

rabbit ClC-2 [2] = biological target: T1, rabbit ClC-2; assay: dose-response of inhibition of ClC-2 window current, inside-out multi-channel patches, synthetic toxin backfilled in the pipette, VM=-100 mV (FIG. 3B)

Binder: VSCEDCPDHCSTQKARAKCDNDKCVCEPI (disulfide (positions not given here), also called Leiuropeptide II; LPII) [GaTx2]
- ClC-1 tail currents at VM=-120 mV from +60 mV, 10 nM GaTx2 against after washout of toxin (ClC-1): 1.04 fold
- latency to first opening upon stepping from VM 0 to -100 mV, 20 pM GaTx2 (rabbit ClC-2 [1]): 7.67 fold increase
- Kd (rabbit ClC-2 [2]): 0.012 nM

— patent US20090239800A1 (GEORGIA TECH RESEARCH CORPORARION, published 2009)
